This note sets out measurements from patent US20250049939A1 (TUBULIS, published 2025).

Experiment [1] concerns the target T1, murine FLT3 expressed on Ba/F3 cells (mouse, UniProt Q00342 28-1000).
T1 construct: whole, on cells; also called mFLT3 wt; mFLT3
T1 sequence (looked up): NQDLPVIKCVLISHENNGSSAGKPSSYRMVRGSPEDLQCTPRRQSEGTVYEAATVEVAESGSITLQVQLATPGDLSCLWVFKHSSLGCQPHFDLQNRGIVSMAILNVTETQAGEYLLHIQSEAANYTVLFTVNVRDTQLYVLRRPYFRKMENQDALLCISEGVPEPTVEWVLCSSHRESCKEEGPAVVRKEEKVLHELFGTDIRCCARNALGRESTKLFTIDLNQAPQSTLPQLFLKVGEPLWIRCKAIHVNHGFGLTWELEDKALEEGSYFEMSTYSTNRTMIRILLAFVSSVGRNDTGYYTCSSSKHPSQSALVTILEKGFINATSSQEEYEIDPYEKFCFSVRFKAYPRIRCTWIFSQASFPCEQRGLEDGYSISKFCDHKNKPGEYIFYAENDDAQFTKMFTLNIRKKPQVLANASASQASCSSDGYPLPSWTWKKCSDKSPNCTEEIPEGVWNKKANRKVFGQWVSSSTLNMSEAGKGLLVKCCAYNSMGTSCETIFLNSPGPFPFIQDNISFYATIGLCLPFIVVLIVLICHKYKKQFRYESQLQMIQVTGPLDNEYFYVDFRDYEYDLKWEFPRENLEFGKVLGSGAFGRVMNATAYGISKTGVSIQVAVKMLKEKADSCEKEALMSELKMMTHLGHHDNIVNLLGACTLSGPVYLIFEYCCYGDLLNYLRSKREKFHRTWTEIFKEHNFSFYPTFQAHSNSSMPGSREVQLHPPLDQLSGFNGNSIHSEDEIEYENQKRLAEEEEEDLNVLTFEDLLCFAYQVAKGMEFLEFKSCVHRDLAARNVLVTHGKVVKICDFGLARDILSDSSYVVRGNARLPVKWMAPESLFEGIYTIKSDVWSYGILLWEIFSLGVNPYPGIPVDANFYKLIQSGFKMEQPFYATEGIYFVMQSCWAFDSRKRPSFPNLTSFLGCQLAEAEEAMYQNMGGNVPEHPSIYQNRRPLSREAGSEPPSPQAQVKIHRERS
In words: flow cytometry, cell surface binding to Ba/F3 pMIY cells expressing mFLT3wt, MFI ratio normalized to IgG1, mean ± s.d. of n=3. In general terms: A flow cytometer gives signals particle by particle.

Experiment [2] concerns the target T2, rat FLT3 expressed on Ba/F3 cells (rat, UniProt A0A0G2JW59 27-982).
T2 construct: whole, on cells
T2 sequence: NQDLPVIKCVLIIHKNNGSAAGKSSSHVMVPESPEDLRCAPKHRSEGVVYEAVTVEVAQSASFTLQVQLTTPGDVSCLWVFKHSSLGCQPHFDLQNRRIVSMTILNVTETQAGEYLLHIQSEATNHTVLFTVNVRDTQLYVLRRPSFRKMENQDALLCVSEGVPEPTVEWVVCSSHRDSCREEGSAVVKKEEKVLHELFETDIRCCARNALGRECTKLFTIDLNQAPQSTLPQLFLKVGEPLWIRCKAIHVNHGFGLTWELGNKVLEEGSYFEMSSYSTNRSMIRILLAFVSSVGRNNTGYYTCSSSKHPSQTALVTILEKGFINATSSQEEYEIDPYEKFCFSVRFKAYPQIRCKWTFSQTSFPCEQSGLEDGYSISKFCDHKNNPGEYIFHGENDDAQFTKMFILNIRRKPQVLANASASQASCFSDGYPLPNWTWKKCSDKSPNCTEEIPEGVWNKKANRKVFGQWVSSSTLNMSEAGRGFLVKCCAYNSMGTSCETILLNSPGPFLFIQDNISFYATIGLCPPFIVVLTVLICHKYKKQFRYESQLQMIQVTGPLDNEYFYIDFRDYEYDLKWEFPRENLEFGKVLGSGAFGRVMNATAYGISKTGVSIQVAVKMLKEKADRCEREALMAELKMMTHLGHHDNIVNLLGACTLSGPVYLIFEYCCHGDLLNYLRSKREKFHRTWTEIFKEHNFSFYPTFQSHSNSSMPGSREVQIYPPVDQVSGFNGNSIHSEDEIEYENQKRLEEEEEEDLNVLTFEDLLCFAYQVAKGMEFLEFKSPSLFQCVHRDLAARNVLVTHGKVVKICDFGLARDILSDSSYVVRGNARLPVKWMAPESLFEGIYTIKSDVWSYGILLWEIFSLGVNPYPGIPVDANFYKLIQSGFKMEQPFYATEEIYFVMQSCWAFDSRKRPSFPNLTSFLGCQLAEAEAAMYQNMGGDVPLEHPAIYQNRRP
Briefly: flow cytometry, cell surface binding to Ba/F3 pMIY cells expressing rFLT3wt, MFI ratio normalized to IgG1, mean ± s.d. of n=3.

B1: Humanized clone 3 of 20D9 (VH3 + VK1) (antibody, human IgG1, kappa)
heavy: not shown
light: DIQMTQSPSVLSASVGDRVTINCRASQNINKELNWYQQKLGEAPKLLIYNTNNLQSGVPSRFSGSGSGTDYTLTISSLQPEDVATYFCFQHKSWPLTFGSGTKLEIKRTVAAPSVFIFPPSDEQLKSGTASVVCLLNNFYPREAKVQWKVDNALQSGNSQESVTEQDSKDSTYSLSSTLTLSKADYEKHKVYACEVTHQGLSSPVTKSFNRGEC
notes: also called candidate #3; #3 mab
Turning to B1, the binding result in experiment [1] and in experiment [2] was “no binding” each time.
